Laboratory results from patent US20250277029A1 (Amgen, published 2025).

B1: 10D10 (antibody, V domains shown)
VH: QVQLQESGPGLVKPSQTLSLTCTVSGGSIRRGGDYWSWIRQHPGKGLEWIGYIYYSGSTNYNPSLKSRATISVDTSKNQFSLKLSSVTAADTAVYYCARDYDILTGYSYYYYGMDVWGQGTTVTVSS
VL: not shown
notes: Parent antibody from XenoMouse; also called 10D10 antibody
B2: LIBC527814-1 (antibody, V domains shown)
VH: QVQLQESGPGLVKPSQTLSLTCTVSGGSIRRGGDYWGWIRQHPGKGLEWIGHVYQTGSTKYNPSFKDRATISVNTYKNQFSLKLSSVTAADTAVYYCARNYDTLTGYSYYYYGMDVWGQGTTVTVSS
VL: DIQMTQSPSTLSASVGDRVTITCRASQSISNYLNWYQQKPGKAPKLLIYAASSLHSGVPSRFSGSGSGTDFTLTISSLQPEDFASYYCQQYQSYPLTFGQGTKVEIKR
notes: Expressed as IgG1 SEFL2 mAb
B3: LIBC528116-1 (antibody, V domains shown)
VH: QVQLQESGPGLVKPSQTLSLTCTVSGGSIRRGGDYWAWIRQHPGKGLEWIGHVYYTGSTNYNPRFKDRATISVNTYKNQFSLKLSSVTAADTAVYYCARNYDTVTGYSYYYYGMDVWGQGTTVTVSS
VL: DIQLTQSPSTLSASVGDRVTITCRASQSISNYLNWYQQKPGKAPKLLIYAASSLHSGVPSRFSGSGSGTDFTLTISSLQPEDFASYYCQQYQSYPLTFGQGTKVEIKR
notes: Expressed as IgG1 SEFL2 mAb; also called 37940-4
B4: LIBC529593-1 (antibody, V domains shown)
VH: QVQLQESGPGLVKPSQTLSLTCTVSGGSIRRGGDYWSWIRQHPGKGLEWIGHIYYSGSTNYNPSLRSRVRISVDTSKNQFSLKLSSVTAADTAVYYCARDYDILTGYSYYYYGLDVWGQGTTVTVSS
VL: not shown
notes: Fully human antibody from the new XenoMouse campaign
B5: LIBC560340-1 (antibody, V domains shown)
VH: QVQLQESGPGLVKPSQTLSLICIVSGGSIRRGGDYWNWIRQHPGKGLEWIGHIYYSGSKNYNPSLKSRVTISVDTSKNQFSLKLSSVTAADTAVYYCARGYDSSGYSYYYYGMDVWGQGTTVTVSS
VL: DIVMTQSPLSLPVTPGEPASISCRSSQSLLYSNGHNFLDWYLQKPGQSPQLLIYLGSNRASGVPDRFSGSGSGTDFTLKISRVEAEDVGVYYCMQALQTPRTFGGGTKVEIKR
notes: as for B4
B6: LIBC560657-1 (antibody, V domains shown)
VH: QVQLRESGPGLVKPSQTLSLICIVSGGSIRRGGDYWNWIRQHPGKGLEWIGHIYYTGTKYYNPSLKSRVTISVDTSKNQFSLKLSSVTAADTAVYYCARGYDSSGYSYYYYGMDVWGQGTTVTVSS
VL: DIVMTQSPLSLPVTPGEPASISCRSSQSLLYSNGHNYLDWYLQKPGQSPQLLIYLGSNRAPGVPDRFSGSGSGTDFTLKISRVEAEDVGVYFCMQALQTPRTFGGGTKVEIKR
notes: as for B4
B7: LIBC523661-1 (antibody, IgG1, V domains shown)
VH: QVQLQESGPGLVKPSQTLSLTCTVSGGSIRRGGDYWSWIRQHPGKGLEWIGHIYYEGSTKYNPSFKGRATISVNTYKNQFSLKLSSVTAADTAVYYCARDYDPVTGHSYYYYGMDVWGQGTTVTVSS
VL: DIVMTQSPLSLPVTPGEPASISCRSSQSLLTSSGYNYVDWYLQKPGQSPQLLIYQGSNRASGVPDRFSGSGSGTDFTLKISRVEAEDVGVYYCRQARAIPRTFGQGTKVEIKR
B8: LIBC529593-1 (antibody, V domains shown)
VH: QVQLQESGPGLVKPSQTLSLTCTVSGGSIRRGGDYWSWIRQHPGKGLEWIGHIYYSGSTNYNPSLRSRVRISVDTSKNQFSLKLSSVTAADTAVYYCARDYDILTGYSYYYYGLDVWGQGTTVTVSS
VL: not shown
B9: LIBC560340-1 (antibody, V domains shown)
VH: QVQLQESGPGLVKPSQTLSLICIVSGGSIRRGGDYWNWIRQHPGKGLEWIGHIYYSGSKNYNPSLKSRVTISVDTSKNQFSLKLSSVTAADTAVYYCARGYDSSGYSYYYYGMDVWGQGTTVTVSS
VL: DIVMTQSPLSLPVTPGEPASISCRSSQSLLYSNGHNFLDWYLQKPGQSPQLLIYLGSNRASGVPDRFSGSGSGTDFTLKISRVEAEDVGVYYCMQALQTPRTFGGGTKVEIKR
B10: LIBC560657-1 (antibody, V domains shown)
VH: QVQLRESGPGLVKPSQTLSLICIVSGGSIRRGGDYWNWIRQHPGKGLEWIGHIYYTGTKYYNPSLKSRVTISVDTSKNQFSLKLSSVTAADTAVYYCARGYDSSGYSYYYYGMDVWGQGTTVTVSS
VL: DIVMTQSPLSLPVTPGEPASISCRSSQSLLYSNGHNYLDWYLQKPGQSPQLLIYLGSNRAPGVPDRFSGSGSGTDFTLKISRVEAEDVGVYFCMQALQTPRTFGGGTKVEIKR

Tests used:
[1] = target: T1, human cannabinoid receptor 1 (huCB1), full length, expressed on cells (human, UniProt P21554 1-472); assay: cell-based or functional assay
[2] = target: T1, human cannabinoid receptor 1 (huCB1), …; assay: cell-based or functional assay; remark: listed apart in the source
[3] = target: T1, human cannabinoid receptor 1 (huCB1), …; assay: cell-based or functional assay; remark: listed apart in the source
[4] = target: T1, human cannabinoid receptor 1 (huCB1), …; assay: cell-based or functional assay; remark: listed apart in the source
[5] = target: T1, human cannabinoid receptor 1 (huCB1), …; assay: cell-based or functional assay; remark: listed apart in the source
[6] = target: T1, human cannabinoid receptor 1 (huCB1), …; assay: cell-based or functional assay; remark: listed apart in the source
[7] = target: T2, huCB1 nanodisc (CB1-ND) (human, UniProt P21554 99-414); assay: Octet BLI; antibody captured by anti-human Fc, CB1-nanodisc in solution, 1:1 model
T2 construct: The His-tagged CB1 is embedded in a POPC lipid nanodisc with MSP1D1 scaffold protein (molar ratio 480:8:1); also called huCB1-ND; #CB1-008

[8] = target: T1, human cannabinoid receptor 1 (huCB1), …; assay: KinExA on-cell ranking, HEK 293T cells expressing full length CB1; %IFF of LIBC523661 divided by %IFF of antibody
[9] = target: T1, human cannabinoid receptor 1 (huCB1), …; assay: cell-based or functional assay; remark: listed apart in the source
[10] = target: T1, human cannabinoid receptor 1 (huCB1), …; assay: FACS on transiently transfected HEK293T cells
[11] = target: T3, truncated human CB1 (devoid of the 1-98 aa N-term), expressed on cells (human, UniProt P21554 99-472); assay: FACS on transiently transfected HEK293T cells
T3 construct: Transiently expressed on HEK293T cells; also called Truncated hu CB1; N-term truncated human CB1

[12] = target: T4, human cannabinoid receptor type 2 (CB2), full length, expressed on cells (human, UniProt P34972 1-360); assay: FACS on transiently transfected HEK293T cells
T4 construct: Transiently expressed on HEK293T cells; also called Full length hu CB2; huCB2

[13] = target: T5, mouse CB1, full length, expressed on cells (mouse, UniProt P47746 1-473); assay: FACS on transiently transfected HEK293T cells
T5 construct: Transiently expressed on HEK293T cells; also called Full length mu CB1; muCB1

[14] = target: T6, human cannabinoid receptor type 2 (CB2) (human, UniProt P34972 1-360); assay: fold over mock (Table 14)
T6 construct: also called huCB2; full length hu CB2

[15] = target: T7, mouse CB1 (mouse, UniProt P47746 1-473); assay: fold over mock (Table 14)
T7 construct: also called muCB1; murine CB1

[16] = target: T8, GFP-fused huCB1-SMALP (human CB1 in styrene maleic acid lipoparticles) (human, UniProt P21554 1-472); assay: flow cytometry, yeast-displayed IgG, GFP MFI
T8 construct: Prepared as in Luna V. et al. 2018; also called huCB1-GFP-SMALP; wtCB1-SMALP; not shown: GFP fusion

[17] = target: T9, full length human CB1 expressed on cells (human, UniProt P21554 1-472); assay: KinExA, on HEK 293T cells expressing full length CB1
T9 construct: also called huCB1; full length hu CB1

[18] = target: T6, human cannabinoid receptor type 2 (CB2); assay: binding to huCB2, fold over mock (method not described)
[19] = target: T7, mouse CB1; assay: binding to muCB1, fold over mock (method not described)
[20] = target: T10, His-tagged huCB1-ND (human CB1 in nanodisc) (human); assay: flow cytometry, yeast-displayed IgG, binding/display ratio
T10 construct: CB1 construct of Cell 167(3) (2016) 750-762 expressed in Sf9 cells; POPC:MSP1D1:CB1 480:8:1; also called CB1-nanodisc; huCB1-Nanodisc; not shown: histidine purification tag

[21] = target: T10, His-tagged huCB1-ND (human CB1 in …); assay: flow cytometry, yeast-displayed IgG, huCB1-ND over empty-ND
[22] = target: T6, human cannabinoid receptor type 2 (CB2); assay: FACS on transfected HEK293T cells
[23] = target: T7, mouse CB1; assay: FACS on transfected HEK293T cells

T4 sequence (P34972 whole entry): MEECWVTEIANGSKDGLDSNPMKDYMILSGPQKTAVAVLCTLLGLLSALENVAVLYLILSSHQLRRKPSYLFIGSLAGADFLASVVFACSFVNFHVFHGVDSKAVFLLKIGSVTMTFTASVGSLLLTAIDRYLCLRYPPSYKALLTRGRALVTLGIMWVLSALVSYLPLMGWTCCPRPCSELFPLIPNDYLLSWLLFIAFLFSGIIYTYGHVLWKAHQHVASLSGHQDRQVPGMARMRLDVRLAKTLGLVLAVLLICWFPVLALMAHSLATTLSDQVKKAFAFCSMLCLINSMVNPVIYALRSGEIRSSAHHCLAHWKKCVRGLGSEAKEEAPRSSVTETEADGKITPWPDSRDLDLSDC
T6 sequence (P34972 whole entry): as above
T3 sequence (P21554 99-472): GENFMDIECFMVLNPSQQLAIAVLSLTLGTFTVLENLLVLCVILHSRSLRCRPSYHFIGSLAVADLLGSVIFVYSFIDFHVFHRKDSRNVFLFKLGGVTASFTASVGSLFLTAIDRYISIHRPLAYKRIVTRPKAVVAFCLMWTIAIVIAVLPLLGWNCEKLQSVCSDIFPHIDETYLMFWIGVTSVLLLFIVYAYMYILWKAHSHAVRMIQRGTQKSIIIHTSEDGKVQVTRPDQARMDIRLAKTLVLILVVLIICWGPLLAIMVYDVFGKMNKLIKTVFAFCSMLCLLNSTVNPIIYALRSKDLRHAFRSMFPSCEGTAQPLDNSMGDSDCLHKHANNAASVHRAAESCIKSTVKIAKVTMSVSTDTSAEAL
T7 sequence (P47746 whole entry): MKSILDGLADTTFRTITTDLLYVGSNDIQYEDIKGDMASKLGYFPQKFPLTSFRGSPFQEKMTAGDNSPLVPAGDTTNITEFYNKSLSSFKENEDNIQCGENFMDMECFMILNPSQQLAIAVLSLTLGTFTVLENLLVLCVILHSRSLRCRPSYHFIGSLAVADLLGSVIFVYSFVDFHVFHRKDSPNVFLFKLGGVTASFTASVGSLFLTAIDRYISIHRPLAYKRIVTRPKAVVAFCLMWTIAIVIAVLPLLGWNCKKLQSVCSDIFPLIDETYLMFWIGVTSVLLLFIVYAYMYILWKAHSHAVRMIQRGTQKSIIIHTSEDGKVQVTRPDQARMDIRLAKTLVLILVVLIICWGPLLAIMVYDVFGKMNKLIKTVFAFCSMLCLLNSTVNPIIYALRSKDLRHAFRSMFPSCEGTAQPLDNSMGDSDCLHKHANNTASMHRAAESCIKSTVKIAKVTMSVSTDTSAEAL
T5 sequence (P47746 whole entry): as above
T2 sequence (P21554 99-414 limits assumed): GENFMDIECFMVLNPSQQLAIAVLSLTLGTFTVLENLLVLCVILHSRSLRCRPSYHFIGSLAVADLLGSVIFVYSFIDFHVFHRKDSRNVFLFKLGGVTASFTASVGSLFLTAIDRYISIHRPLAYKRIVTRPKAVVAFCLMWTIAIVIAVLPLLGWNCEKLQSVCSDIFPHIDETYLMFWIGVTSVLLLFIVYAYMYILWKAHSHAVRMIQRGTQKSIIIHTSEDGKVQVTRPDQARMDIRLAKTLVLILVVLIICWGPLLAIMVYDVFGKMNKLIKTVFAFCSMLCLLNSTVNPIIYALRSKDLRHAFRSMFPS
T1 sequence (P21554 whole entry): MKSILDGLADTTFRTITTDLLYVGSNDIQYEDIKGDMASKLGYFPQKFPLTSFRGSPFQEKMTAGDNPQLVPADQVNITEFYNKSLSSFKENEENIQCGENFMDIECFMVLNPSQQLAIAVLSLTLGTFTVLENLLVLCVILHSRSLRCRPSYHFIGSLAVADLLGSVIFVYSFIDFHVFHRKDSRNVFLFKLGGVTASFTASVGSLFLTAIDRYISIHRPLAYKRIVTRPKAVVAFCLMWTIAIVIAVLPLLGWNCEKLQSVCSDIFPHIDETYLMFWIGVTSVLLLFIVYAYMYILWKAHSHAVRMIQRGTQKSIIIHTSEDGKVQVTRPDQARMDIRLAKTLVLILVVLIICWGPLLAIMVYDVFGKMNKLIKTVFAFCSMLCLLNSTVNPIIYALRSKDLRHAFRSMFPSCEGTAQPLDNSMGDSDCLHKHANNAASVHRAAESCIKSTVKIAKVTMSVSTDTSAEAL
T10 sequence (P21554 99-414): as the sequence (P21554 99-414 limits assumed) above
T8 sequence (P21554 whole entry, the tested form may be a part): as the sequence (P21554 whole entry) above
T9 sequence (P21554 whole entry): as above

Row | Binder | Mean IC50 (nM), cAMP antagonist assay [1] [nM] | n = 1 IC50 (nM), cAMP antagonist assay [1] [nM] | n = 2 IC50 (nM), cAMP antagonist assay [1] [nM] | Mean IC50 (nM, n = 3), cAMP antagonist assay [2] [nM] | IC50, nM (CP agonist) [5] [nM] | IC50, nM (TR-FRET cAMP assay, CP55,940 and Forskolin) [6] [nM] | Kd [7] [nM] | MFI ratio (target- vs mock-transfected cells) [10] [ratio] | MFI ratio (target- vs mock-transfected cells) [11] [ratio] | MFI ratio (target- vs mock-transfected cells) [12] [ratio] | MFI ratio (target- vs mock-transfected cells) [13] [ratio] | binding result [22] | binding result [23] | other results
1 | B1 | 80.8 | 118 | 43.4 | 120 | 121 | 120 | 755 |  |  |  |  |  |  | Antagonist assay IC50 (nM), 2-AG [3]: 178 nM; Antagonist assay IC50 (nM), Anandamide [3]: 6040 nM; Antagonist assay IC50 (nM), CP 55,940 [3]: 120 nM; Inverse agonist assay IC50 [3]: 295 nM; IC50 (nM), antagonist assay [4]: 144 nM
2 | B2 | 2.97 | 4.72 | 1.22 | 2.07 | 2.1 |  | 35 |  |  |  |  |  |  | Mean IC50, -fold vs Rimo [1]: 0.99 fold vs Rimonabant; n = 1 IC50, -fold vs Rimo [1]: 1.12 fold vs Rimonabant; n = 2 IC50, -fold vs Rimo [1]: 0.68 fold vs Rimonabant; IC50 (nM), antagonist assay [4]: 3.8 nM; koff [7]: 0.00198 s⁻¹; kon [7]: 56600 M⁻¹ s⁻¹; Relative binding (KinExA, on cell; vs LIBC523661 mAb) [8]: 1.9 ratio
3 | B3 | 2.4 | 3.93 | 0.88 | 1.77 | 1.8 |  | 29 |  |  |  |  |  |  | Antagonist assay IC50 (nM), 2-AG [3]: 7.2 nM; Antagonist assay IC50 (nM), Anandamide [3]: 17 nM; Antagonist assay IC50 (nM), CP 55,940 [3]: 1.8 nM; Inverse agonist assay IC50 [3]: 31.7 nM; IC50 [9]: 2.7 nM
4 | B4 |  |  |  |  |  | 6.4 |  | 422 | 495 | 1.1 | 1 |  |  | 
5 | B5 |  |  |  |  |  | 10.2 |  | 578 | 705 | 1 | 1 |  |  | 
6 | B6 |  |  |  |  |  | 7.5 |  | 440 | 444 | 1 | 1 |  |  | 
7 | B7 |  |  |  |  |  |  |  |  |  |  |  |  |  | binding result [14]: no binding; binding result [15]: no binding; 100 nM huCB1-SMALP binding (normalized to 10D10) [16]: 8 fold; Kd [17]: 0.064 nM; Fold over mock [18]: 0.8 fold; Fold over mock [19]: 0.7 fold; relative binding to 0.2 nM huCB1-ND (relative to 10D10N35Y) [20]: 4.03 fold; specific huCB1 binding (CB1 ND/Empty ND ratio) [21]: 9.32 ratio
8 | B8 |  |  |  |  |  |  |  |  |  |  |  | no binding | no binding | 
9 | B9 |  |  |  |  |  |  |  |  |  |  |  | no binding | no binding | 
10 | B10 |  |  |  |  |  |  |  |  |  |  |  | no binding | no binding | 
